The values that follow come from the RNAGym collection of RNA variant scans (doi:10.1073/pnas.2313332121).

To fix the notation:
B1: TPR 5TU (parent)
chain: GGAUCUUCUCGAUCUAACAAAAAAGACAAAUCUGCCACAAAGCUUGAGAGCAUCUUCGGAUGCAGAGGCGGCAGCCUUCGGUGGCGCGAUAGCGCCAACGUUCUCAACUAUGACACGCAAAACGCGUGCUCCGUUGAAUGGAGUUUAUCAUG

This sample holds only a part of the variants without activity.

The variants in the data set derive from B1. The data set is described as follows: polymerase ribozyme fitness, log enrichment relative to wild type (log ratio); higher = more active; in vitro selection for triplet polymerase activity. A digest of the protocol:
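Genotype fitness is the logarithm of its enrichment divided by wild-type enrichment, using inverse-variance-weighted averages of replicates. That logarithm is base 2. Enrichment was measured by Illumina sequencing of input and output libraries from one triplicate in vitro selection round, with frozen incubation at −7 °C, on PCR-built, transcribed mutant libraries of each subunit of a heterodimeric triplet polymerase ribozyme, retaining genotypes with ≥10 input reads and ≥1 read per output.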
Consider U61A A64G G140C U144C, for which the “polymerase ribozyme fitness (log ratio)” value was no more than -4.2. For A60U U130G G143C, the “polymerase ribozyme fitness (log ratio)” value is no more than -4.2. As to A60U A89C, the “polymerase ribozyme fitness (log ratio)” value is -0.611. As for U61A C129U, the figure is -3.55; as for A60G G94A, 0.0761. As for A60G C75G G81C G94U C103A A107U U111G, the figure is no more than -4.2; as for U61A A142G, -1.25. As for U61A C105U, the figure is -1.02; as for U61A A66C G74A U90G A91G G133U A138C, no more than -4.2.

As for A60U G92U G141C, the “polymerase ribozyme fitness (log ratio)” value is -2.82. As for U61A C75U C125A G128A A142U A147G, the figure is no more than -4.2. As for A60G G81A A97U C99U, the figure is -1.35. As for U61A C63U G133U, the figure is no more than -4.2; as for U61A C85U, -1.28; as for U61A C85A, -3.12. Turning to U61A C85G, the “polymerase ribozyme fitness (log ratio)” value was no more than -4.2. As for U61A C79G U82C C132G, the figure is no more than -4.2; as for U61A A137C G140A, -4.19; as for A60G A73U C93U, -1.38.

A60G C123U G124A C131A: the “polymerase ribozyme fitness (log ratio)” value was -2.39. For U61A A73G G80U the value was no more than -4.2. As for A60G U78A A106G C118U, the figure is no more than -4.2; as for A60U U139A A150U, no more than -4.2. For A60G C85G G94A, the “polymerase ribozyme fitness (log ratio)” value is -0.0985.

A60G A150G: the “polymerase ribozyme fitness (log ratio)” value was -0.0266.

As for A60U A150C, the “polymerase ribozyme fitness (log ratio)” value was -3.39.

For A60U C79U G81U A91G C95G U102A, the “polymerase ribozyme fitness (log ratio)” value was no more than -4.2.

Turning to A60G G126A, the “polymerase ribozyme fitness (log ratio)” value came to 1.03.

Turning to U61A C87U, the “polymerase ribozyme fitness (log ratio)” value was -2.83. Take U61A A73C: the “polymerase ribozyme fitness (log ratio)” value was -3.91. As for U61A A73G, the figure is -1.42. For U61A C96G the value was -2.6. For A60G G84A C118A the value was -0.875; for A60U, -0.665; for A60G, 0.0111. In the case of A60C G83U A121U, the “polymerase ribozyme fitness (log ratio)” value is -2.35. Regarding A60U G143A, the “polymerase ribozyme fitness (log ratio)” value was -1.07.

With A60G U139C G141C U144A, the “polymerase ribozyme fitness (log ratio)” value was -4.04. For A60G A73G G92U the value was 0.661; for A60G C93G A147G, -4.1. For A60G U61G G81C A122C A142U the value was -3.02; for A60C C105G, -3.44; for A60G G70A U78C U130A, no more than -4.2. For A60U A91G G141A U145G the value was -3.98; for U61A G80A, -2.08. As to A60G G117C G124U, the “polymerase ribozyme fitness (log ratio)” value was found to be 0.122. For A60G G71A G141U the value was no more than -4.2. With A60U C93U U151G, the “polymerase ribozyme fitness (log ratio)” value was no more than -4.2. As for A60G G128U, the figure is -2.75. For A60G C75G, the “polymerase ribozyme fitness (log ratio)” value is -2.36.

In the case of A60U A91U C96A C103A A115U, the “polymerase ribozyme fitness (log ratio)” value was no more than -4.2. For the variant A60G C129G, the “polymerase ribozyme fitness (log ratio)” value was -2.25. As for A60C U82G G86A U146G, the figure is -3.33. For A60C C87A A98U the value was no more than -4.2; for A60G G83A G86A A97C C125G C131G G136A G152U, no more than -4.2; for U61A C87U U102C C103G U130C, no more than -4.2. As for A60G G117A, the figure is 0.434; as for U61A C118A, -2.

In the case of A60G U90G U145A, the “polymerase ribozyme fitness (log ratio)” value is no more than -4.2. As for A60G G70C A89C, the figure is -3.24.

For the variant A60U C85G C96U C105U, the “polymerase ribozyme fitness (log ratio)” value was no more than -4.2. Regarding A60G C116U, the “polymerase ribozyme fitness (log ratio)” value is 0.141.

In the case of U61A A91C G100C A142U, the “polymerase ribozyme fitness (log ratio)” value is no more than -4.2. As for A60U C87G, the figure is no more than -4.2; as for A60G U134G, -2.14.

Consider A60G U134A, for which the “polymerase ribozyme fitness (log ratio)” value was -1.8.

Regarding A60G C96G, the “polymerase ribozyme fitness (log ratio)” value was -0.394.

For U61A C96G U109A, the “polymerase ribozyme fitness (log ratio)” value is -3.32. As for A60U G136C U139G, the figure is -3.71.

With U61A C85A G141C, the “polymerase ribozyme fitness (log ratio)” value is -2.36. As for A60U C85A U145A, the figure is -1.8; as for U61A G67A C76A G81A C85A, no more than -4.2. As for A60U C85U G88U C99U, the figure is no more than -4.2. As for A60U G80A C85A C93A, the figure is no more than -4.2; as for A60G C93A A97C A110U C123U U130G G133A, no more than -4.2.

A60C G81C C87A: the “polymerase ribozyme fitness (log ratio)” value was no more than -4.2. Regarding A60G A89G, the “polymerase ribozyme fitness (log ratio)” value was -0.778. For U61A G65A G81U C85U U102G the value was no more than -4.2; for U61A A122G G140C, no more than -4.2.

Take A60G A91C C95U A110U C114U C118G A150U: the “polymerase ribozyme fitness (log ratio)” value was no more than -4.2.

With U61A C96G G117A, the “polymerase ribozyme fitness (log ratio)” value was -2.2. As for A60U G84U C95G, the figure is 0.318; as for A60U U127G, -3.08; as for A60U G84U, -1.58.
